Assay results from paper PMC8333309, “Mechanism of LolCDE as a molecular extruder of bacterial triacylated lipoproteins” (Nature Communications, 2021).

Substrate: Nc1ncnc2c1ncn2[C@@H]1O[C@H](COP(=O)(O)OP(=O)(O)OP(=O)(O)O)[C@@H](O)[C@H]1O
Test: colorimetric phosphate-release ATPase assay
Assay type: biochemical, Escherichia coli
Settings: LolCDE in POPG nanodiscs, MgCl2, 25 mM Tris pH 8, 150 mM NaCl, 37 °C, basal activity, no lipoprotein added

B1: LolCDE (Escherichia coli K-12) (protein)
chain: MNKILLQCDNLCKRYQEGSVQTDVLHNVSFSVGEGEMMAIVGSSGSGKSTLLHLLGGLDTPTSGDVIFNGQPMSKLSSAAKAELRNQKLGFIYQFHHLLPDFTALENVAMPLLIGKKKPAEINSRALEMLKAVGLDHRANHRPSELSGGERQRVAIARALVNNPRLVLADEPTGNLDARNADSIFQLLGELNRLQGTAFLVVTHDLQLAKRMSRQLEMRDGRLTAELSLMGAE
notes: co-expressed in E. coli BL21(DE3); purified in DDM, reconstituted into MSP1D1/POPG nanodiscs; co-purifies with lipoprotein; with Lipoprotein-releasing system transmembrane protein LolC; Lipoprotein-releasing system transmembrane protein LolE
Km: 0.19 ± 0.05 mM
